The values that follow come from paper PMC8866119 (Nature, 2021).

In this experiment the target is SARS-CoV-2 Omicron (B.1.1.529) RBD (SARS-CoV-2 Omicron B.1.1.529 (BA.1), strain).

B1: C581 (antibody, V domains shown)
VH: EVQLVQSGAEVKKPGESLKISCKGSGYRFTSYWIAWVRQMPGKGLEWMGIIYPGDSDTRYSPSFQGQVTISADQSISTAYLQWSSLKASDTAMYYCARGGPPGGVKLELTDYWGQGALVTVSS
VL: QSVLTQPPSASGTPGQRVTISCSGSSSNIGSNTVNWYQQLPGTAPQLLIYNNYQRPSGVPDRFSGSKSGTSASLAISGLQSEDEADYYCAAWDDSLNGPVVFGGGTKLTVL
In the case of B1, the binding result is on record as “binds”.

B2: BD-713 (antibody, V domains shown)
VH: EVQLVESGGGLVQPGRSLRLSCAASGFTFDDYAMHWVRQAPGKGLEWVSGMSWNSGTIGYADSVKGRFTIIRDNAKNSLYLQMIRLRAEDTALYYCAKASPRLDTAMAPFDYWGQGTLVTVSS
VL: SYVLTQPPSVSVAPGKTARITCGGNNIGSKSVHWYQQKPGQAPALVIYYDNDRPSGLPERFSGSNSGNTATLTISRVEAGDEADYYCQVWHSSSDSLVFGGGTKLTVL
Turning to B2, the binding result was “binds”.

B3: DH1044 (antibody, V domains shown)
VH: QVQLVESGGGVVQPGRSLRLSCAASGFTFSSYGMHWVRQAPGKGLEWVAVISFDGSNKYYVDSVKGRFTISRDNSKNTLYLQMNSLRAEDTAVYYCAKDMHNDYGDYVSYYFYYGMDVWGQGTTVTVSS
VL: QSVLTQPPSVSAAPGQKVIISCSGSSSNIGNNYVSWYQQLPGTAPKLLIYENNKRPSGIPDRFSGSKSGTSATLGITGLQTGDEADYYCGTWDSSLRTDVFGGGTKLIVL
With B3, the binding result was “binds”.

B4: C576 (antibody, V domains shown)
VH: QVQLVQSGAEVKKPGSSVKVSCKASGGTFSIYAISWVRQAPGQGLEWMGGIIPILGTANYAQKFQGRVTITADESTSTAYMELSSLRSEDTAVYYCASFHVAYGDYIPFDYWGQGTLVTVSS
VL: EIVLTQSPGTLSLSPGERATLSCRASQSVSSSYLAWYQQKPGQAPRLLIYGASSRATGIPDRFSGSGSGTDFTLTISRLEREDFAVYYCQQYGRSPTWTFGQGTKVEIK
Consider B4, for which the binding result is listed as “binds”.

B5: BD-907 (antibody, V domains shown)
VH: QVQLVQSGSELKKPGASVKVSCKASGYTFSSYYLNWVRQAPGQGLEWMGWIDTNTGNPTYAQAFTGRFVFSLDTSVSTAYLQIGSLQANDTAVYYCAREGGGWSGLYYYFGMDVWGQGTTVTVSS
VL: EIVLTQSPGTLSLSPGERATVSCRASQSIGSNYLAWYQQKPGQAPRLLIYGASSRATGIPDRFSGSGSGTDFTLTISRLEPEDFAVYYCQQYGSSPPYTFGQGTKLEIK
In the case of B5, the binding result was “binds”.

B6: BD-914 (antibody, V domains shown)
VH: QVQLVQSGAEVTKPGSSVKVSCKTSGDTFSLYPISWVRQAPGQGLEWMGRIIPIVGIADYAQKFQGRVTITADKSTSTAYMELSSLRSEDTAIYYCARDGNQYYYDSGGDYYVNYWGQGTLITVSS
VL: DIQMTQSPSSLSASVGDRVTITCQASQDIRKDLNWYRQRPGKAPKLLIYDASNLETGVPSRFSGSGSGTHFTFTISGLQPEDVATYYCQQYDNVPVTFGPGTKVDIR
Take B6: the binding result is “binds”.

B7: BD-796 (antibody, V domains shown)
VH: QVQLVQSGAEVKKPGSSVKVSCKASGGTFSSYAINWMRQAPGQGLEWMGGIIPILGIPNSAQKFQGRVTITADKSTSTAYMELSSLRSEDTAVYYCARMYNYDSSGLEADAFDIWGQGTMVTVSS
VL: QSVLTQPPSVSGAPGQRVTISCTGSSSNIGAGYDVHWYQQLPGTAPKLLIYGNSNRPSGVPDRFSGSKSGTSASLAITGLQAEDEADYYCQSYDSSLSGVVFGGGTKLTVL
Regarding B7, the binding result is reported as “binds”.

B8: C556 (antibody, V domains shown)
VH: QVQLVQSGAEVKKPGASVKVSCKASGYTFTYYYMHWVRQAPGQGLEWMGIINPSGGSTSYAQKFQGRVTMTRDTSTSTVYMELSSLRSEDTAVYYCARPLLPGETGSLNRLDYWGQGTLVTVSS
VL: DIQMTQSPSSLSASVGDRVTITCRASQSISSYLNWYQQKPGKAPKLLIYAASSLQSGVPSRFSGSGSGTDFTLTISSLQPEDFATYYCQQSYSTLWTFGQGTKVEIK
In the case of B8, the binding result was “binds”.

B9: BD-923 (antibody, V domains shown)
VH: EVLLVESGGGLVQPGRSLRLSCTASGFTFEDYAMHWVRQAPGKGLEWVSGMSWNSGTIGYADSVRGRFIISRDNAKNSLYLQMNSLRAEDTALYYCGKDRGFGESLYYVMDVWGQGATVTVSS
VL: QSALTQPASVSGSPGQSITISCTGTSSDVGVYNYVSWYQQHPGKAPKLMIYNVSDRPSGVSNRFSGSKSGNTASLTISGLQAEDEADYYCSSYTSSSIVIFGGGTKLTVL
Regarding B9, the binding result is on record as “binds”.
